# Test results reported in the Human Domainome abundance scans (Beltran et al. 2025).
# ± gives the uncertainty stated by the source.
# B1: DnaJ homolog subfamily C member 2, residues 451 to 503; numbered along this chain, Q99543 (parent)
# chain: SKNWSEDDLQLLIKAVNLFPAGTNSRWEVIANYMNIHSSSGVKRTAKDVIGKA
# Variants of: B1
# Assay: abundance fitness (aPCA) (normalised: wild type 0, dead -1); higher = more abundant; growth selection in yeast, the domain comes from the species named
# Conditions: Homo sapiens
row,Variant,abundance fitness
1,SKNWSEDDLQLLIKAVNLFPAGTNKRWEVIANYMNIHSSSGVKRTAKDVIGKA,-0.003 ± 0.12
2,SKNWSEDDLQLLIKAVNLFPAGTNSRWFVIANYMNIHSSSGVKRTAKDVIGKA,-0.376 ± 0.11
3,SKNWFEDDLQLLIKAVNLFPAGTNSRWEVIANYMNIHSSSGVKRTAKDVIGKA,-0.654 ± 0.19
4,SKNWDEDDLQLLIKAVNLFPAGTNSRWEVIANYMNIHSSSGVKRTAKDVIGKA,-0.676 ± 0.32
5,SKNWSEDDLQLLIKAVNLFPAGTNSRIEVIANYMNIHSSSGVKRTAKDVIGKA,-0.286 ± 0.14
6,SKNWSEDDLQLLIKAVNLFPAGTNSRMEVIANYMNIHSSSGVKRTAKDVIGKA,-0.323 ± 0.089
7,SKNWSEDDLQLLIKAVNLFPAGTNSRTEVIANYMNIHSSSGVKRTAKDVIGKA,-0.475 ± 0.088
8,SKNWSEDDLQLLIKAVNLFPAGTNSRGEVIANYMNIHSSSGVKRTAKDVIGKA,-0.138 ± 0.054
9,SKNWSEDNLQLLIKAVNLFPAGTNSRWEVIANYMNIHSSSGVKRTAKDVIGKA,-0.757 ± 0.1
10,SKNWSEDSLQLLIKAVNLFPAGTNSRWEVIANYMNIHSSSGVKRTAKDVIGKA,-0.615 ± 0.06
11,SKNWSEDRLQLLIKAVNLFPAGTNSRWEVIANYMNIHSSSGVKRTAKDVIGKA,-0.453 ± 0.064
12,SKNWSEDDLGLLIKAVNLFPAGTNSRWEVIANYMNIHSSSGVKRTAKDVIGKA,-0.141 ± 0.062
13,SKNWSEDDLALLIKAVNLFPAGTNSRWEVIANYMNIHSSSGVKRTAKDVIGKA,-0.189 ± 0.063
14,SKNWSEDDLQLLIKAVNLFPAPTNSRWEVIANYMNIHSSSGVKRTAKDVIGKA,-0.217 ± 0.074
15,SKNWSEDDLQLLIKAVNLFPAKTNSRWEVIANYMNIHSSSGVKRTAKDVIGKA,-0.146 ± 0.076
16,SKNWSEDDLQLLIKAVNLFPAGTNSGWEVIANYMNIHSSSGVKRTAKDVIGKA,-0.74 ± 0.21
17,SKNWSEDDLQLLIKGVNLFPAGTNSRWEVIANYMNIHSSSGVKRTAKDVIGKA,-0.182 ± 0.058
18,SKNWSEDDLQLLIKAVNLFPAGTNSRWEVIANYMNIHSSSGVKRTAKDRIGKA,-0.888 ± 0.085
19,SKNWSEDDLQLLIKAVNLFPAGTNSRWEVIANYMNIHSSSGVKRTAKDCIGKA,-0.031 ± 0.1
20,SKNWSEDDLQLLIKAVNLFPAGTNSRWEVIANYMNIHSSSGVKRTAKDPIGKA,-1.18 ± 0.14
21,SKNWSEDDYQLLIKAVNLFPAGTNSRWEVIANYMNIHSSSGVKRTAKDVIGKA,0.022 ± 0.071
22,SKNWSEDDNQLLIKAVNLFPAGTNSRWEVIANYMNIHSSSGVKRTAKDVIGKA,0.184 ± 0.11
23,SKNWSEDDLQLLIKAVNLEPAGTNSRWEVIANYMNIHSSSGVKRTAKDVIGKA,-1.06 ± 0.13
24,SKNWSEDDLQLLIKAVNLCPAGTNSRWEVIANYMNIHSSSGVKRTAKDVIGKA,-0.586 ± 0.11
25,SKNWSEDDLQLLIKAVNLFPAGTNSRWEVIINYMNIHSSSGVKRTAKDVIGKA,-0.82 ± 0.12

row,Variant,abundance fitness
1,SKNWSEDDLQLLIKAVNLFPAGTNSRWEVIHNYMNIHSSSGVKRTAKDVIGKA,-0.919 ± 0.13
2,SKNWSEDDLQLLIKAVNLFPAGTNSRWEVIWNYMNIHSSSGVKRTAKDVIGKA,-0.857 ± 0.077
3,SKNWSEDDLQLLIKADNLFPAGTNSRWEVIANYMNIHSSSGVKRTAKDVIGKA,-0.371 ± 0.094
4,SKNWSEDDLQLLINAVNLFPAGTNSRWEVIANYMNIHSSSGVKRTAKDVIGKA,-0.274 ± 0.095
5,SKNWSEDDLQLLISAVNLFPAGTNSRWEVIANYMNIHSSSGVKRTAKDVIGKA,-0.225 ± 0.062
6,SKNWSEDDLQLLIDAVNLFPAGTNSRWEVIANYMNIHSSSGVKRTAKDVIGKA,-0.054 ± 0.084
7,SKNWSEDDLQLLIKAVNLFPAGINSRWEVIANYMNIHSSSGVKRTAKDVIGKA,-0.226 ± 0.1
8,SKNWSEDDLQLLIKAVNLFPAGQNSRWEVIANYMNIHSSSGVKRTAKDVIGKA,-0.162 ± 0.14
9,SKNWSEDDLQLLIKAVNLFPAGYNSRWEVIANYMNIHSSSGVKRTAKDVIGKA,-0.201 ± 0.14
10,SKNWSEDDLQYLIKAVNLFPAGTNSRWEVIANYMNIHSSSGVKRTAKDVIGKA,-0.579 ± 0.093
11,SKNWSEDDLQLLIKAVNLFPAGTISRWEVIANYMNIHSSSGVKRTAKDVIGKA,-0.09 ± 0.098
12,SKNWSEDDLQLLIKAVNLFPAGTCSRWEVIANYMNIHSSSGVKRTAKDVIGKA,-0.166 ± 0.091
13,SKNWSEDDLQLLIKAVNLFPAGTNSRWEVIANYMNIHSSSGVKRTAKDVISKA,-0.014 ± 0.057
14,SKNWSEDDLQLLIKAVNLFPAGTNSRWEVIANYMNIHSSSGVKRTAKDVIFKA,-0.136 ± 0.094
15,SKIWSEDDLQLLIKAVNLFPAGTNSRWEVIANYMNIHSSSGVKRTAKDVIGKA,0.021 ± 0.1
16,SKLWSEDDLQLLIKAVNLFPAGTNSRWEVIANYMNIHSSSGVKRTAKDVIGKA,-0.12 ± 0.062
17,SKNWSEDDLQLLIKAVNLFPAGTNSRWEVIANYMNGHSSSGVKRTAKDVIGKA,-0.009 ± 0.053
18,SKNWSEDDLQLLIKAVNLFPAGTNSRWEVIANRMNIHSSSGVKRTAKDVIGKA,-0.865 ± 0.067
19,SKNWSEDDLQLLIKAVNLFPAGTNSRWEVIANVMNIHSSSGVKRTAKDVIGKA,-0.847 ± 0.072
20,SKNWSEDDLQLLIKAVNLFPAGTNSRWEVIANEMNIHSSSGVKRTAKDVIGKA,-0.805 ± 0.091
21,SKNWSEDDLQLLIKAVNLFPAGTNSRWEVSANYMNIHSSSGVKRTAKDVIGKA,-0.947 ± 0.072
22,SKNWSEDDLQLLIKAVNLFPAGTNSRWEVGANYMNIHSSSGVKRTAKDVIGKA,-0.905 ± 0.056
23,SKNWSEDDLQLLIKAVNLFPAGTNSRWEVEANYMNIHSSSGVKRTAKDVIGKA,-0.955 ± 0.076
24,SKNWSEDDLQLLIKAVNLFPAGTNSRWEVRANYMNIHSSSGVKRTAKDVIGKA,-0.951 ± 0.063
25,VKNWSEDDLQLLIKAVNLFPAGTNSRWEVIANYMNIHSSSGVKRTAKDVIGKA,-0.063 ± 0.11
